Results from patent publication US20180296691A1 (Pfizer, published 2018).

Experiments:
Assay in all cases: SPR (BIAcore 2000), Eph receptor captured via anti-human antibody capture kit, monomeric human Ephrin-A4 12-400 nM as analyte, steady state affinity fit
[1] = molecular target: T1, recombinant EphA7 receptor (commercially available) (UniProt Q15375 28-555, limits assumed)
T1 sequence (looked up): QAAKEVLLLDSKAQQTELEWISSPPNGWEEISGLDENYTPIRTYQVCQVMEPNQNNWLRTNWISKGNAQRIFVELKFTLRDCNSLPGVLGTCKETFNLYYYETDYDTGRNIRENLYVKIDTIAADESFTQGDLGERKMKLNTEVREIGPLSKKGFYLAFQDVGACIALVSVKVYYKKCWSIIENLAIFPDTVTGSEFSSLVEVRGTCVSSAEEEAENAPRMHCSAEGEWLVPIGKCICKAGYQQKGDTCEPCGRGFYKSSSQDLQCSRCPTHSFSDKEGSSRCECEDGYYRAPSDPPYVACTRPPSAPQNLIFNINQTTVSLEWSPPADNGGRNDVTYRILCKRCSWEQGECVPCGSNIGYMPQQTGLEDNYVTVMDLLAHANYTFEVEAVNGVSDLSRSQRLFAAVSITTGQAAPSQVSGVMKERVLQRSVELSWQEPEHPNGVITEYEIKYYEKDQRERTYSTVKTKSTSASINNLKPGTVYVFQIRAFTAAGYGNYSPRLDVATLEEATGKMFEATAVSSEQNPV
Protocol: (§1) An anti-human antibody capture kit was used to immobilize recombinant Eph receptors on a CM5 biosensor chip. Prior to each antigen injection cycle, Eph receptors at the concentration of 2 μg/mL were captured on the surface with a contact time of 2 minutes and a flow rate of 5 μL/min. The captured antibody loading from baseline was constant at 150-260 response units. […] Following each cycle, the anti-human capture surface was regenerated with 30 seconds contact time of 3M MgCl₂ at 10 μL/min.
(§2) Biacore data was processed by initially calculating an average of the response at equilibrium (Req). The Req was then plotted versus concentration (M) and the steady state affinity fit was used to calculate the affinity and theoretical Rmax. In all cases, at least 5 different analyte concentrations were used to make this calculation. All data analysis steps were completed in BiaEvaluation Software 3.1 (GE Healthcare).

[2] = molecular target: recombinant EphA2 receptor (commercially available) (UniProt P29317 25-534, limits assumed)
recombinant EphA2 receptor (commercially available), sequence (P29317 25-534 limits assumed): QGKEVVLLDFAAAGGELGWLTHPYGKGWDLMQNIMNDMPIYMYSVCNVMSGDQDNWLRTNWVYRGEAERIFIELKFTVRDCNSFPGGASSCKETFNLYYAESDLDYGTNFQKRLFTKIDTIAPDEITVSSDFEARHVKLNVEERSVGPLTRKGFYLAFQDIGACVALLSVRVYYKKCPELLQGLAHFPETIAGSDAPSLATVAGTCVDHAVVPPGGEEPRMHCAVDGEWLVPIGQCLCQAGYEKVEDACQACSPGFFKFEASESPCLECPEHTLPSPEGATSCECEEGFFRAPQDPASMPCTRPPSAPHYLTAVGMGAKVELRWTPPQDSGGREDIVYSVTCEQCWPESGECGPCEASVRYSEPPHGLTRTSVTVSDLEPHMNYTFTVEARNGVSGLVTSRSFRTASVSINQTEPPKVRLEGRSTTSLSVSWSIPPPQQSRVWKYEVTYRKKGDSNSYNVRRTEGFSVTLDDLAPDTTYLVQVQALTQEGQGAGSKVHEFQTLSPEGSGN
Protocol: as §1, §2

[3] = molecular target: T2, recombinant EphA10 receptor (commercially available) (UniProt Q5JZY3 34-565, limits assumed)
T2 sequence (looked up): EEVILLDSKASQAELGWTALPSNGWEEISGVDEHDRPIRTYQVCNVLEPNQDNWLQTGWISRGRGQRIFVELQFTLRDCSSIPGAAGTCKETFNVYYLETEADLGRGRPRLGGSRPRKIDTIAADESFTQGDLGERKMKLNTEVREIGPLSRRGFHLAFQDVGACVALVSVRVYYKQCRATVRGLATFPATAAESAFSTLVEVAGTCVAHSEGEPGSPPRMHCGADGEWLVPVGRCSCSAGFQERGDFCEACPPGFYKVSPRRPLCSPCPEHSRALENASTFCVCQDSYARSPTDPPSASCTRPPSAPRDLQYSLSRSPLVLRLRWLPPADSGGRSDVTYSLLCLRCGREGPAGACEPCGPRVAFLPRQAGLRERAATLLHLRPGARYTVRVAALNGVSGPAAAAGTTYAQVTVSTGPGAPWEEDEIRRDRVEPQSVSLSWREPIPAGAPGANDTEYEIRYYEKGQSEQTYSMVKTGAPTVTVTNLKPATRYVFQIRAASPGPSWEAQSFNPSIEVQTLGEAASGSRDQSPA
Protocol: as §1, §2

[4] = molecular target: recombinant EphA4 receptor (commercially available) (UniProt P54764 20-547, limits assumed)
recombinant EphA4 receptor (commercially available), sequence (P54764 20-547 limits assumed): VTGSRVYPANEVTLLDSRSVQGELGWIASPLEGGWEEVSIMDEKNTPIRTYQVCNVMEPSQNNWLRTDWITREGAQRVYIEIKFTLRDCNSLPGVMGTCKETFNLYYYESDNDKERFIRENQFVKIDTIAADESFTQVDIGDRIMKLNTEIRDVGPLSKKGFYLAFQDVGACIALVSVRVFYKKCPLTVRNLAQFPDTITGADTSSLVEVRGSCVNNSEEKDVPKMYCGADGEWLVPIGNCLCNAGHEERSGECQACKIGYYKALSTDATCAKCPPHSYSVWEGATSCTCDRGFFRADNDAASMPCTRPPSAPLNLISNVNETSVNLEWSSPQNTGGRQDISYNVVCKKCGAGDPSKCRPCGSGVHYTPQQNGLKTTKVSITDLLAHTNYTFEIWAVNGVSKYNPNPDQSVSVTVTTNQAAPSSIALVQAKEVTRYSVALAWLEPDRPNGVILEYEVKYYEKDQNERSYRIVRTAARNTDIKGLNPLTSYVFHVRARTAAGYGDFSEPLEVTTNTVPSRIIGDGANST
Protocol: as §1, §2

[5] = molecular target: T3, recombinant EphA3 receptor (commercially available) (UniProt P29320 21-541, limits assumed)
T3 sequence (looked up): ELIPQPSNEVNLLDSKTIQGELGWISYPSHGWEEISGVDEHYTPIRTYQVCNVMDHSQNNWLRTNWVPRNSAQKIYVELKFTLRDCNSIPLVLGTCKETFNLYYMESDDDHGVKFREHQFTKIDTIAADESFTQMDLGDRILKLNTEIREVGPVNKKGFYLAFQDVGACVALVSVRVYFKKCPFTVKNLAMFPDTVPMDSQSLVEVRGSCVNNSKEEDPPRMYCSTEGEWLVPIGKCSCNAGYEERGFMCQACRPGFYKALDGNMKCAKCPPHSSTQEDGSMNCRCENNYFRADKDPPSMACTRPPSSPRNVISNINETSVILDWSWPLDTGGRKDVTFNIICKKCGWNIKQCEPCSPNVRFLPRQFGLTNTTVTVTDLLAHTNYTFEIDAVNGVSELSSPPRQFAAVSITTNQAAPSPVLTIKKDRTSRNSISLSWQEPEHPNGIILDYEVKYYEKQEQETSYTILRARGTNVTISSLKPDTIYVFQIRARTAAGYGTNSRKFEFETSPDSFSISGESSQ
Protocol: as §1, §2

[6] = molecular target: T4, recombinant EphA6 receptor (commercially available) (UniProt Q9UF33 23-550, limits assumed)
T4 sequence (looked up): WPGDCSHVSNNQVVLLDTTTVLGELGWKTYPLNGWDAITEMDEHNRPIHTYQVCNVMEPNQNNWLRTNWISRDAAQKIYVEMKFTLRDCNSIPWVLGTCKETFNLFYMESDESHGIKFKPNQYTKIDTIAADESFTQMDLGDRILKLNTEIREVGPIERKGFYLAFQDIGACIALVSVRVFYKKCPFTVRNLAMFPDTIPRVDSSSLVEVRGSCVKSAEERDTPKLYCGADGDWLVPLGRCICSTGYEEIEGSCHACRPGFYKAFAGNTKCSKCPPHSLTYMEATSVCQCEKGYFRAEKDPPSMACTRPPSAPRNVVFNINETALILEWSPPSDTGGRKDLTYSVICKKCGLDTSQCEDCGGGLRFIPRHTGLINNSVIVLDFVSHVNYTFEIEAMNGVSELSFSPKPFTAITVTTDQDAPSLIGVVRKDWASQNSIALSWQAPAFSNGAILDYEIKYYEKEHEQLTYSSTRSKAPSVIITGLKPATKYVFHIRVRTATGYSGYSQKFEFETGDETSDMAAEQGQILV
Protocol: as §1, §2

[7] = molecular target: T5, recombinant EphB2 receptor (commercially available) (UniProt P29323 19-543, limits assumed)
T5 sequence (looked up): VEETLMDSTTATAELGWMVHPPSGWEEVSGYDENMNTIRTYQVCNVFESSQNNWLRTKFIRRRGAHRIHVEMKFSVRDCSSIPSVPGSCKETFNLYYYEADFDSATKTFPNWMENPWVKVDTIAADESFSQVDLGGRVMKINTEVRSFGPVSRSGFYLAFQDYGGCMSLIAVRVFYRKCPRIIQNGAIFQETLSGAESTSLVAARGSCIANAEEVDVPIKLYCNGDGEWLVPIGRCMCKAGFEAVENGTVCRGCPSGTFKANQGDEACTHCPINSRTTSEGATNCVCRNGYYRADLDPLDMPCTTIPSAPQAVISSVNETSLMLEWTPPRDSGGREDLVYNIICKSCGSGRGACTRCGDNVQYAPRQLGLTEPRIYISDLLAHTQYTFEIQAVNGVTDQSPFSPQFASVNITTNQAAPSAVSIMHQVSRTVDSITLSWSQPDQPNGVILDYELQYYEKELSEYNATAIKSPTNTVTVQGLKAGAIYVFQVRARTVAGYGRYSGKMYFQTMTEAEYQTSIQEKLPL
Protocol: as §1, §2

B1: monomeric human Ephrin-A4 (ligand)
chain: LRHVVYWNSSNPRLLRGDAVVELGLNDYLDIVCPHYEGPGPPEGPETFALYMVDWPGYESCQAEGPRAYKRWVCSLPFGHVQFSEKIQRFTPFSLGFEFLPGETYYYISVPTPESSGQCLRLQVSVCCKERKSESAHPVGSPGES
[1]
  Kd: 0.086 µM
[2]
  Kd: 0.031 µM
[3]
  Kd: 0.431 µM
[4]
  Kd: 0.122 µM
[5]
  Kd: 0.077 µM
[6]
  Kd: 0.082 µM
[7]
  Kd: 0.135 µM
